Results: IntAct's records for PubMed 35512704

B1: Speckle-type POZ protein (Homo sapiens), O43791 (parent)
chain: MSRVPSPPPPAEMSSGPVAESWCYTQIKVVKFSYMWTINNFSFCREEMGEVIKSSTFSSGANDKLKWCLRVNPKGLDEESKDYLSLYLLLVSCPKSEVRAKFKFSILNAKGEETKAMESQRAYRFVQGKDWGFKKFIRRDFLLDEANGLLPDDKLTLFCEVSVVQDSVNISGQNTMNMVKVPECRLADELGGLWENSRFTDCCLCVAGQEFQAHKAILAARSPVFSAMFEHEMEESKKNRVEINDVEPEVFKEMMCFIYTGKAPNLDKMADDLLAAADKYALERLKVMCEDALCSNLSVENAAEILILADLHSADQLKTQAVDFINYHASDVLETSGWKSMVVSHPHLVAEAYRSLASAQCPFLGPPRKRLKQS
partner: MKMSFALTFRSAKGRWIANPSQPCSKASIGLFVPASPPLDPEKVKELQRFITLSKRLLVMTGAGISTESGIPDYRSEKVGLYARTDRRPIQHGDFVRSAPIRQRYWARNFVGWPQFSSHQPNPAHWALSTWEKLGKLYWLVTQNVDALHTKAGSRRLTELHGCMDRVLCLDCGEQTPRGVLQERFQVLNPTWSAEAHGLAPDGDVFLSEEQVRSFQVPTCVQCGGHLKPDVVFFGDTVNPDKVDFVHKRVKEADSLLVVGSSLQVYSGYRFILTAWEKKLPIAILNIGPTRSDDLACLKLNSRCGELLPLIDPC
B2: Speckle-type POZ protein (Homo sapiens), O43791 (parent)
chain: B1 chain
partner: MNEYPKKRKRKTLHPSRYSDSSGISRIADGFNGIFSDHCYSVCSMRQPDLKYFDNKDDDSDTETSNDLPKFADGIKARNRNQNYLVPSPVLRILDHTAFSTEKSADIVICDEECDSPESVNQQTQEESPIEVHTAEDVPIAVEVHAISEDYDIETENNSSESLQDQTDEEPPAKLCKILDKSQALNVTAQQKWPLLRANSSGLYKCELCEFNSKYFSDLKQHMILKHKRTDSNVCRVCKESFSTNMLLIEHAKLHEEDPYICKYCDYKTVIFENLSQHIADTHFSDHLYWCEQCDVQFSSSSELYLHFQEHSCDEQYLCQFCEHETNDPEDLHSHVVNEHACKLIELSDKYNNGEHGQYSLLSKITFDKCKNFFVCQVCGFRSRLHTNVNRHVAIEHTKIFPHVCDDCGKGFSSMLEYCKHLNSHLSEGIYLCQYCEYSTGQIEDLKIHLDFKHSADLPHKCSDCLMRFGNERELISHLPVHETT
B3: Speckle-type POZ protein (Homo sapiens), O43791 (parent)
chain: B1 chain
partner: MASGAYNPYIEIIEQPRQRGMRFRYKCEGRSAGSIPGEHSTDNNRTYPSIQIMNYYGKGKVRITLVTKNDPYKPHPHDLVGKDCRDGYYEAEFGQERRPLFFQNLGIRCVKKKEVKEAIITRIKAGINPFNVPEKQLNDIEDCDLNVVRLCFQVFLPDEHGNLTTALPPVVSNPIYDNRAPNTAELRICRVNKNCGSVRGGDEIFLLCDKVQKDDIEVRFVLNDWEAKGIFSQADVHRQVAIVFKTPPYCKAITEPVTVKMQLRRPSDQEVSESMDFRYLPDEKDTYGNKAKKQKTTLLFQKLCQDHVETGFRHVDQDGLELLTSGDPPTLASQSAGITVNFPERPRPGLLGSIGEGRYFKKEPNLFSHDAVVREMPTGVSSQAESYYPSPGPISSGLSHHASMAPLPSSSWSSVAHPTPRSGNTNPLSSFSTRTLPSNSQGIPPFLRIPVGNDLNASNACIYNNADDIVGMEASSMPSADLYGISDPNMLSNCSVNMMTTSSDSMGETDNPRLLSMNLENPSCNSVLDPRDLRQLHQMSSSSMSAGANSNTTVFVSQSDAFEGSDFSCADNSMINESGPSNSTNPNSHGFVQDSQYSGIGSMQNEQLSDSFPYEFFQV
B4: Speckle-type POZ protein (Homo sapiens), O43791 (parent)
chain: B1 chain
partner: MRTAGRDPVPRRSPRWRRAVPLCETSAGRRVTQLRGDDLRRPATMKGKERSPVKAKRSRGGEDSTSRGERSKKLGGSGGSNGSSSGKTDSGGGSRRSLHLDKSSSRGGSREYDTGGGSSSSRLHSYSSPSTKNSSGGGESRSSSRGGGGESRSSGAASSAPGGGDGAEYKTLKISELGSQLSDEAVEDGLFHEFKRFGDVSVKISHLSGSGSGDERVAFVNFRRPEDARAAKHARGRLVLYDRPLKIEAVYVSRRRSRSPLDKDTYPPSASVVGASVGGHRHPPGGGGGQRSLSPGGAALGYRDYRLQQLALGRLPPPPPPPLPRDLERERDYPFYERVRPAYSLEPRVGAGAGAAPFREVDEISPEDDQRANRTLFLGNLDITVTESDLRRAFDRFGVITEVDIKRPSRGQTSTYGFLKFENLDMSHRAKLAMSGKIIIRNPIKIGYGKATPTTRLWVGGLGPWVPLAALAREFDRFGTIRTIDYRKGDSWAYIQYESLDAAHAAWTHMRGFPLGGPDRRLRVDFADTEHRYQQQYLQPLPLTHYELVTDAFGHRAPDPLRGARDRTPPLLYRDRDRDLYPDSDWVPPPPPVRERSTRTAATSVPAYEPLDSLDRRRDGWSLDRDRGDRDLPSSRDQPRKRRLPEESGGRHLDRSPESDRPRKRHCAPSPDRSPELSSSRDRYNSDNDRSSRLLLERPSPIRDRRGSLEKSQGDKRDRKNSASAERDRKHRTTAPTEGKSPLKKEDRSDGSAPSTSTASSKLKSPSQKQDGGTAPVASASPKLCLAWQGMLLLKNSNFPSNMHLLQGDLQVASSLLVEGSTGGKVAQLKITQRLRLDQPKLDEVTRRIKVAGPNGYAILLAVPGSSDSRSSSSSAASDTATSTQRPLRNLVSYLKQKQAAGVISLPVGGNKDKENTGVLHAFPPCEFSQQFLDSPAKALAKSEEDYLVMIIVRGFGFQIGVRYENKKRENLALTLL
B5: Speckle-type POZ protein (Homo sapiens), O43791 (parent)
chain: B1 chain
partner: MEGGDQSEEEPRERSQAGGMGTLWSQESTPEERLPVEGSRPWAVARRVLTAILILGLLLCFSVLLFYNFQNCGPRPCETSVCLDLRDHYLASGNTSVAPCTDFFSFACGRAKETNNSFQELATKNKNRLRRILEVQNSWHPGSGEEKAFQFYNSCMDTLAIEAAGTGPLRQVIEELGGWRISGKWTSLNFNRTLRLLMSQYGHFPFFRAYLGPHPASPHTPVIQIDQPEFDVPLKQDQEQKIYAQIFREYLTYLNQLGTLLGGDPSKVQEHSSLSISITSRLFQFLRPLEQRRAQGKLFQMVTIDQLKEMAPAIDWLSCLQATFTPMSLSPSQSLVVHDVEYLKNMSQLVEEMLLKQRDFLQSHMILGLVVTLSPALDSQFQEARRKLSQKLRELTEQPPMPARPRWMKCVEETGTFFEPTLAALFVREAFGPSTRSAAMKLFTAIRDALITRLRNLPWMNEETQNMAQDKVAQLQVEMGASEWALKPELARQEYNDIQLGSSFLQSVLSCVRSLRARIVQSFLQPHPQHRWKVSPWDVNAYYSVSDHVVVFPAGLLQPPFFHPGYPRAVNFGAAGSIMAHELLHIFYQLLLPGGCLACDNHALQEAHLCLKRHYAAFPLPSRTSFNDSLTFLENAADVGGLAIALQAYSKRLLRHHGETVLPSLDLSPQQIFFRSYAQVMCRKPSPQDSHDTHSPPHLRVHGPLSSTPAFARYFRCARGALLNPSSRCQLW
B6: Speckle-type POZ protein (Homo sapiens), O43791 (parent)
chain: B1 chain
partner: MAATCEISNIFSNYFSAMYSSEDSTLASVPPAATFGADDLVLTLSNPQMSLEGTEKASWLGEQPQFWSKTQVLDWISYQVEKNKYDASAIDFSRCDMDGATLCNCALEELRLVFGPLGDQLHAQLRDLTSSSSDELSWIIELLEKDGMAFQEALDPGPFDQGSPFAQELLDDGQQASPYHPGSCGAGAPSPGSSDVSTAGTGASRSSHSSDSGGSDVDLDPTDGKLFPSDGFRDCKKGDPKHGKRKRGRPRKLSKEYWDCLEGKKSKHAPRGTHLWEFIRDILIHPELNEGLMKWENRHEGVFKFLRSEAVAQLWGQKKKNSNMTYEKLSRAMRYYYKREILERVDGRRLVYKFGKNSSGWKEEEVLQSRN
B7: Speckle-type POZ protein (Homo sapiens), O43791 (parent)
chain: B1 chain
partner: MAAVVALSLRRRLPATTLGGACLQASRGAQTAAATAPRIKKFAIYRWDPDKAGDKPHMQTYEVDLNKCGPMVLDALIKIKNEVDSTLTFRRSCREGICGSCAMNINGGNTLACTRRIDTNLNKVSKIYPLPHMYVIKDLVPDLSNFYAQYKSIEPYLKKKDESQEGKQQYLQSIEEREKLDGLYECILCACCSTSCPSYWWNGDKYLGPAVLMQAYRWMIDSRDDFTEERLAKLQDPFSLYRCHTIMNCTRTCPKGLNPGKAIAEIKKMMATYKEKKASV

Variants of: B1
Details: with sir4_human SIRT4, Q9Y6E7

Row | Variant | effect of a mutation on the interaction
1 | Y87C | with no effect

Variants of: B1
Details: with sir4_human SIRT4, Q9Y6E7
Remark: another data set of the same source

Row | Variant | effect of a mutation on the interaction
2 | F133V | with no effect

Variants of: B1
Details: with sir4_human SIRT4, Q9Y6E7
Remark: another data set of the same source

Row | Variant | effect of a mutation on the interaction
3 | F133L | with no effect

Variants of: B2
Details: with zn639_human ZNF639, Q9UID6

Row | Variant | effect of a mutation on the interaction
4 | F102C | with no effect

Variants of: B2
Details: with zn639_human ZNF639, Q9UID6
Remark: another data set of the same source

Row | Variant | effect of a mutation on the interaction
5 | F133L | with no effect

Variants of: B2
Details: with zn639_human ZNF639, Q9UID6
Remark: another data set of the same source

Row | Variant | effect of a mutation on the interaction
6 | F133V | with no effect

Variants of: B3
Details: with rel_human REL

Row | Variant | effect of a mutation on the interaction
7 | F102C | with no effect

Variants of: B3
Details: with rel_human REL
Remark: another data set of the same source

Row | Variant | effect of a mutation on the interaction
8 | F133L | causing an interaction

Variants of: B3
Details: with rel_human REL
Remark: another data set of the same source

Row | Variant | effect of a mutation on the interaction
9 | F133L | increasing interaction strength

Variants of: B3
Details: with rel_human REL
Remark: another data set of the same source

Row | Variant | effect of a mutation on the interaction
10 | F133V | with no effect

Variants of: B3
Details: with rel_human REL
Remark: another data set of the same source

Row | Variant | effect of a mutation on the interaction
11 | Y87C | with no effect

Variants of: B4
Details: with rbm15_human RBM15, Q96T37

Row | Variant | effect of a mutation on the interaction
12 | F133L | with no effect

Variants of: B4
Details: with rbm15_human RBM15, Q96T37
Remark: another data set of the same source

Row | Variant | effect of a mutation on the interaction
13 | F133V | with no effect

Variants of: B5
Details: with kell_human KEL

Row | Variant | effect of a mutation on the interaction
14 | F133V | with no effect

Variants of: B5
Details: with kell_human KEL
Remark: another data set of the same source

Row | Variant | effect of a mutation on the interaction
15 | F133L | with no effect

Variants of: B5
Details: with kell_human KEL
Remark: another data set of the same source

Row | Variant | effect of a mutation on the interaction
16 | Y87C | with no effect

Variants of: B6
Details: with elf3_human ELF3, P78545

Row | Variant | effect of a mutation on the interaction
17 | Y87C | with no effect

Variants of: B7
Details: with sdhb_human SDHB

Row | Variant | effect of a mutation on the interaction
18 | Y87C | with no effect
